From US20200223889A1 (Novo Nordisk, published 2020)
Positions of bridges follow the written chain, without caps; N, C: chain ends. Non-standard residues stand in square brackets, D forms with d. Pro(cis-4-guanidino) = NC(N)=N[C@@H]1CN[C@H](C(=O)O)C1; Hyp = O=C(O)[C@@H]1C[C@@H](O)CN1; GABA = NCCCC(=O)O; Sar = CNCC(=O)O

Legend:
[1] = target: human melanocortin 1 receptor (human, UniProt Q01726 1-317); assay: cell-based or functional assay
[2] = target: T1, human melanocortin 4 receptor (human, UniProt P32245 1-332); assay: cell-based or functional assay
T1 sequence (P32245 whole entry): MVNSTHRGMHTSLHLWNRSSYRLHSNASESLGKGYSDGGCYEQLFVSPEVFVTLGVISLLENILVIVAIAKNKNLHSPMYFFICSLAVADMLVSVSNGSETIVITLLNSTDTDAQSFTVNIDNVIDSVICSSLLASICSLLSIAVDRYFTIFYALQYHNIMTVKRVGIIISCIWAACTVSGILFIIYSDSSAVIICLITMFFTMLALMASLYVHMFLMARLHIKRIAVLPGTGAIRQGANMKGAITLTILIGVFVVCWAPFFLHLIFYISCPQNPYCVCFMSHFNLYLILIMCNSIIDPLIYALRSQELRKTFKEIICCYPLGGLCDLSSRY

[3] = target: T1, human melanocortin 4 receptor; assay: competition with 125-NDP-α-MSH, BHK human MC4R membranes
How it was run: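 Competition binding used membranes from BHK cells stably expressing human MC4R with ¹²⁵I-NDP-α-MSH (apx. […] final), compound at 1 μM–0.001 nM. Incubation was 2 h at 25 °C in HEPES pH 7.0 buffer with CaCl₂, MgSO₄, EGTA, Tween 20 and 0.1% HSA or ovalbumin. Filter-bound radioactivity was fitted by non-linear regression.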

Sequence of human melanocortin 1 receptor (Q01726 whole entry): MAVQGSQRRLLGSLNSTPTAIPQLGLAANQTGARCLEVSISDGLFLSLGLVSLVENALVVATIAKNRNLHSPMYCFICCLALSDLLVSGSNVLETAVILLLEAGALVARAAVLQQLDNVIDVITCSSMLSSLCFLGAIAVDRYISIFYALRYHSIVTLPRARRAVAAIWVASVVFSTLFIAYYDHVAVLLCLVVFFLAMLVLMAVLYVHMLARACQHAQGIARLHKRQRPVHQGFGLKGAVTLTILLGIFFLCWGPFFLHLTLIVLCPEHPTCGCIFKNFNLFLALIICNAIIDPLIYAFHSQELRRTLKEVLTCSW

B1: Chem. 31 (peptide)
peptide: cyclo(C[Sar]H[dF]RWC[Sar]H[dF]RW)
modifications: disulfide 1-7
SMILES: CN1CC(=O)N[C@@H](Cc2c[nH]cn2)C(=O)N[C@H](Cc2ccccc2)C(=O)N[C@@H](CCCNC(=N)N)C(=O)N[C@@H](Cc2c[nH]c3ccccc23)C(=O)N[C@H]2CSSC[C@H](NC(=O)[C@H](Cc3c[nH]c4ccccc34)NC(=O)[C@H](CCCNC(=N)N)NC(=O)[C@@H](Cc3ccccc3)NC(=O)[C@H](Cc3c[nH]cn3)NC(=O)CN(C)C2=O)C1=O
notes: also called c[c[Cys-Sar-His-D-Phe-Arg-Trp-Cys]-Sar-His-D-Phe-Arg-Trp]
**Q.** For B1, which “MC1R cAMP EC50” value [1] is on record?
**A.** The value was 7.78 nM.

**Q.** And the “MC4R cAMP EC50” value [2]?
**A.** Its value is 0.29 nM.

**Q.** What about the Ki [3] of the same binder?
**A.** Its Ki is 1.67 nM.

B2: Chem. 35 (peptide)
peptide: cyclo(C[GABA]H[dF]RWC[GABA]H[dF]RW)
modifications: disulfide 1-7
SMILES: N=C(N)NCCC[C@@H]1NC(=O)[C@@H](Cc2ccccc2)NC(=O)[C@H](Cc2c[nH]cn2)NC(=O)CCCNC(=O)[C@@H]2CSSC[C@H](NC(=O)[C@H](Cc3c[nH]c4ccccc34)NC1=O)C(=O)NCCCC(=O)N[C@@H](Cc1c[nH]cn1)C(=O)N[C@H](Cc1ccccc1)C(=O)N[C@@H](CCCNC(=N)N)C(=O)N[C@@H](Cc1c[nH]c3ccccc13)C(=O)N2
notes: also called c[c[Cys-GABA-His-D-Phe-Arg-Trp-Cys]-GABA-His-D-Phe-Arg-Trp]
**Q.** How did the “MC1R cAMP EC50” value [1] turn out when B2 was run?
**A.** Its value is 0.28 nM.

**Q.** What about the “MC4R cAMP EC50” value [2] of the same binder?
**A.** Its value is 0.01 nM.

**Q.** What about the Ki [3] of the same binder?
**A.** The Ki was 0.03 nM.

B3: Chem. 30 (peptide)
peptide: cyclo(CPH[dF]RWCPH[dF]RW)
modifications: disulfide 1-7
SMILES: N=C(N)NCCC[C@@H]1NC(=O)[C@@H](Cc2ccccc2)NC(=O)[C@H](Cc2c[nH]cn2)NC(=O)[C@@H]2CCCN2C(=O)[C@@H]2CSSC[C@H](NC(=O)[C@H](Cc3c[nH]c4ccccc34)NC1=O)C(=O)N1CCC[C@H]1C(=O)N[C@@H](Cc1c[nH]cn1)C(=O)N[C@H](Cc1ccccc1)C(=O)N[C@@H](CCCNC(=N)N)C(=O)N[C@@H](Cc1c[nH]c3ccccc13)C(=O)N2
notes: also called c[c[Cys-Pro-His-D-Phe-Arg-Trp-Cys]-Pro-His-D-Phe-Arg-Trp]
**Q.** B3 was tested. Which “MC1R cAMP EC50” value [1] did it give?
**A.** Its value is 0.61 nM.

**Q.** What about the “MC4R cAMP EC50” value [2] of the same binder?
**A.** The value was 0.03 nM.

**Q.** And the Ki [3]?
**A.** The Ki was 0.09 nM.

B4: Chem. 29 (peptide)
peptide: cyclo(CAH[dF][Pro(cis-4-guanidino)]WCAH[dF][Pro(cis-4-guanidino)]W)
modifications: disulfide 1-7
SMILES: C[C@@H]1NC(=O)[C@@H]2CSSC[C@H](NC(=O)[C@H](Cc3c[nH]c4ccccc34)NC(=O)[C@@H]3C[C@H](N=C(N)N)CN3C(=O)[C@@H](Cc3ccccc3)NC(=O)[C@H](Cc3c[nH]cn3)NC1=O)C(=O)N[C@@H](C)C(=O)N[C@@H](Cc1c[nH]cn1)C(=O)N[C@H](Cc1ccccc1)C(=O)N1C[C@@H](N=C(N)N)C[C@H]1C(=O)N[C@@H](Cc1c[nH]c3ccccc13)C(=O)N2
notes: also called c[c[Cys-Ala-His-D-Phe-4cis-GuaPro-Trp-Cys]-Ala-His-D-Phe-4cis-GuaPro-Trp]
**Q.** For B4, which “MC1R cAMP EC50” value [1] is on record?
**A.** Its value is > 100 nM.

**Q.** What about the “MC4R cAMP EC50” value [2] of the same binder?
**A.** The value was 1020 nM.

**Q.** What about the Ki [3] of the same binder?
**A.** Its Ki is 1210 nM.

B5: Chem. 32 (peptide)
peptide: cyclo(C[Hyp]H[dF]RWC[Hyp]H[dF]RW)
modifications: disulfide 1-7
SMILES: N=C(N)NCCC[C@@H]1NC(=O)[C@@H](Cc2ccccc2)NC(=O)[C@H](Cc2c[nH]cn2)NC(=O)[C@@H]2C[C@@H](O)CN2C(=O)[C@@H]2CSSC[C@H](NC(=O)[C@H](Cc3c[nH]c4ccccc34)NC1=O)C(=O)N1C[C@H](O)C[C@H]1C(=O)N[C@@H](Cc1c[nH]cn1)C(=O)N[C@H](Cc1ccccc1)C(=O)N[C@@H](CCCNC(=N)N)C(=O)N[C@@H](Cc1c[nH]c3ccccc13)C(=O)N2
notes: also called c[c[Cys-Hyp-His-D-Phe-Arg-Trp-Cys]-Hyp-His-D-Phe-Arg-Trp]
**Q.** B5 was tested. Which “MC1R cAMP EC50” value [1] did it give?
**A.** The value was 1.98 nM.

**Q.** What about the “MC4R cAMP EC50” value [2] of the same binder?
**A.** Its value is 0.12 nM.

**Q.** What about the Ki [3] of the same binder?
**A.** The Ki was 0.37 nM.
